Reference: patent US5747453

Target: PTH receptor (rat) (UniProt P25961)
Sequence (P25961 27-591): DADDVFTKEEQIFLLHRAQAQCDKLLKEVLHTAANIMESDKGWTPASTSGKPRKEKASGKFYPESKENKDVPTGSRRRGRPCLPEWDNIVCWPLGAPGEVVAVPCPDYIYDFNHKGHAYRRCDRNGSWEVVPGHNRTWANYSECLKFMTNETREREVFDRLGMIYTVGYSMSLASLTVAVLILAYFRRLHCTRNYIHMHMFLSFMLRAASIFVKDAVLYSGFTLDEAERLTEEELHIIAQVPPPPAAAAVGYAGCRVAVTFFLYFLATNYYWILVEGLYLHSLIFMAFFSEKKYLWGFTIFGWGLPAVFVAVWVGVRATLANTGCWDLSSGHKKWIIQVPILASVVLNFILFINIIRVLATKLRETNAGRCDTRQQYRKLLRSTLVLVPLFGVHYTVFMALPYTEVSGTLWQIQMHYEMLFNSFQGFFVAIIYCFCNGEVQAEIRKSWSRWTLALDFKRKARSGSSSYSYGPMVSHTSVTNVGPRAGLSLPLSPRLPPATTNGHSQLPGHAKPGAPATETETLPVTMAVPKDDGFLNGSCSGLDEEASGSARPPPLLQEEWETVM

Sequence of PTH analog 1 (1-35) (ligand) (peptide): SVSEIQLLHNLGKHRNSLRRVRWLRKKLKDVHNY

Substance | cAMP concentration (adenylate cyclase stimulation) in UMR106 cells, scintillation proximity assay [nM]
PTH analog 1 (1-35) (ligand) | 0.9
Synthetic PTH having the wild-type sequence (ligand) | 4.4
